{"source": "patent US20200087380A1", "about": "(Chugai, published 2020)", "binders": {"B1": {"name": "4ch_004 (anti-IL6R MH0-TH2k/ML0-TL17 and anti-GPC3 GpH7-TH13h/GpL16-TL16; KiH + CH1/CL_1) (bispecific antibody, human IgG1, kappa)", "heavy 1": "not shown", "light 1": "not shown", "heavy 2": "not shown", "light 2": "DIVMTQSPLSLPVTPGEPASISCQASESLVHSNRNTYLHWYLQKPGQSPQLLIYKVSNRFSGVPDRFSGSGSGTDFTLKISRVEAEDVGVYYCSQNTHVPPTFGQGTKVEIERTVAAPSVFIFPPSDEQLKSGTAKVVCLLNNFYPREAKVQWKVDNALQSGNSKESVTEQDSKDSTYSLSSTLKLSKADYEKHKVYACEVTHQGLSSPVTKSFNRGEC", "notes": "IgG1/kappa bispecific with knob (k) and hole (h) H chains"}, "B2": {"name": "4ch_001 (anti-IL6R MH0-G1d/ML0-k0 and anti-GPC3 GpH7-G1d/GpL16-k0, no CH1/CL or KiH modification) (bispecific antibody, human IgG1, kappa)", "heavy 1": "not shown", "light 1": "not shown", "heavy 2": "not shown", "light 2": "B1 light 2 with K136S, K165Q, K185T", "notes": "Four chains co-expressed without pairing control"}, "B3": {"name": "4ch_006 (anti-IL6R MH0-TH2k/ML0-TL17 and anti-GPC3 GpH7-TH15h/GpL16-TL19; KiH + CH1/CL_2) (bispecific antibody, human IgG1, kappa)", "heavy 1": "not shown", "light 1": "not shown", "heavy 2": "not shown", "light 2": "B1 light 2 with E128K", "notes": "as for B1"}, "B4": {"name": "4ch_008 (anti-IL6R MH0-TH13k/ML0-TL16 and anti-GPC3 GpH7-TH2h/GpL16-TL17; KiH + CH1/CL_1) (bispecific antibody, human IgG1, kappa)", "heavy 1": "not shown", "light 1": "not shown", "heavy 2": "not shown", "light 2": "B1 light 2 with K136E, K165E, K185E", "notes": "as for B1"}, "B5": {"name": "4ch_010 (anti-IL6R MH0-TH15k/ML0-TL19 and anti-GPC3 GpH7-TH2h/GpL16-TL17; KiH + CH1/CL_2) (bispecific antibody, human IgG1, kappa)", "heavy 1": "not shown", "light 1": "not shown", "heavy 2": "not shown", "light 2": "B1 light 2 with K136E, K165E, K185E", "notes": "as for B1"}, "B6": {"name": "anti-GPC3 antibody with H chain constant region TH13 (K147E, Q175E) and L chain constant region TL16 (T180K, S131K, Q160K) (antibody, human IgG1, kappa)", "heavy": "not shown", "light": "B1 light 2", "notes": "IgG1/kappa; also called TH13/TL16"}, "B7": {"name": "anti-GPC3 antibody with H chain constant region TH15 (K147E, Q175E, K213E) and L chain constant region TL19 (T180K, S131K, Q160K, E123K) (antibody, human IgG1, kappa)", "heavy": "not shown", "light": "B1 light 2 with E128K", "notes": "IgG1/kappa; also called TH15/TL19"}, "B8": {"name": "anti-GPC3 antibody with H chain constant region TH2 (Q175K) and L chain constant region TL17 (T180E, S131E, Q160E) (antibody, human IgG1, kappa)", "heavy": "not shown", "light": "B1 light 2 with K136E, K165E, K185E", "notes": "IgG1/kappa; also called TH2/TL17"}, "B9": {"name": "anti-GPC3 antibody with H chain constant region G1d and L chain constant region k0 (GpH7-G1d / GpL16-k0) (antibody, human IgG1, kappa)", "heavy": "not shown", "light": "B1 light 2 with K136S, K165Q, K185T", "notes": "IgG1/kappa; also called G1d/k0; native G1d/k0"}}, "note": "Numbering of substitutions follows the chain as printed. Numbers in names are those of the source. Where “and” joins values, the source holds several entries; their conditions need not be identical. Identical values can stand only once.", "data": [{"target": "T1, GPC3 (UniProt P51654 25-563, limits assumed)", "T1 construct": "also called glypican-3", "T1 sequence (P51654 25-563 limits assumed)": "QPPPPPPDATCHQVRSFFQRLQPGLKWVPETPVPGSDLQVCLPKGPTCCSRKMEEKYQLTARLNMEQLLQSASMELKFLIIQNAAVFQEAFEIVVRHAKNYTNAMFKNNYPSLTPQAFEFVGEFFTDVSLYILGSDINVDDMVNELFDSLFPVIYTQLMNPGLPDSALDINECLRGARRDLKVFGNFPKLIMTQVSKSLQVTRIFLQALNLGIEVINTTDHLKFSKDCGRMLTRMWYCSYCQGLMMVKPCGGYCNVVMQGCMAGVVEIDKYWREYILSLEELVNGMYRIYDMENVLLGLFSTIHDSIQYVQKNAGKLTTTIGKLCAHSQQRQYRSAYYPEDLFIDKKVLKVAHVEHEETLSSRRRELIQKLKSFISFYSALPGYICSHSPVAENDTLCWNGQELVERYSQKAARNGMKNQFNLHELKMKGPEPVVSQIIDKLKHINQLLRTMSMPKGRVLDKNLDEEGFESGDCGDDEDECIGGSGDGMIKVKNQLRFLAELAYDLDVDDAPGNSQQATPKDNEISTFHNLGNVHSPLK", "assay": "SPR (Biacore T100), antibody captured on Protein A/G chip, antigen as analyte, 25 C, 1:1 Langmuir fit", "units": {"Kd": "nM", "koff": "s⁻¹", "kon": "M⁻¹ s⁻¹"}, "experimental": "(§1) Interactions between a target antibody and hIL6R or GPC3 were analyzed using Biacore T100 (GE Healthcare). HBS-EP+(GE Healthcare) was used for the running buffer, and the measurement temperature was 25° C. Protein A/G (Thermo Scientific) was immobilized on the Series S Sensor Chip CMS (GE Healthcare) by amine coupling, and was used as a chip. A target antibody was captured onto the chip, and interacted with each antigen diluted with running buffer. Antibodies captured on the chip were washed off by reacting with 10 mM glycine-HCl (pH 1.5) to regenerate the chip to be used repeatedly.\n(§2) More specifically, the association rate constant ka (L/mol/s) and dissociation rate constant kd (1/s) were calculated by global fitting sensorgrams obtained by measuring with the Biacore Evaluation Software in a 1:1 Langmuir binding model, followed by calculation of dissociation constant KD (mol/L) from those values.", "values": [{"binder": "B1", "Kd": 1.4, "koff": 0.00038, "kon": 270000}, {"binder": "B2", "Kd": 1.3, "koff": 0.00036, "kon": 270000}, {"binder": "B3", "Kd": 1.2, "koff": 0.00042, "kon": 340000}, {"binder": "B4", "Kd": 1.5, "koff": 0.00039, "kon": 260000}, {"binder": "B5", "Kd": 1.4, "koff": 0.00041, "kon": 290000}]}, {"target": "T2, hIL6R (human, UniProt P08887 20-357, limits assumed)", "T2 construct": "Printed as hIL6R", "T2 sequence (looked up)": "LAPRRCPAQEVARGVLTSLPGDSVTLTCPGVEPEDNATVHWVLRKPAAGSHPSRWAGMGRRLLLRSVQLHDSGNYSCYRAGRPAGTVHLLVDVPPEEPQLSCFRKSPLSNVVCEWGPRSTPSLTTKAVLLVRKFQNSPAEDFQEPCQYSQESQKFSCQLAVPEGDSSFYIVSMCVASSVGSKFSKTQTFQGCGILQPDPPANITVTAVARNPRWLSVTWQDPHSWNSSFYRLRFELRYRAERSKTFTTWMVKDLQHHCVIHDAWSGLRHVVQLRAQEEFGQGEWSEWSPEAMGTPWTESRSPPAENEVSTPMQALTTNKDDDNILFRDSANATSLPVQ", "assay": "SPR (Biacore T100), antibody captured on Protein A/G chip, antigen as analyte, 25 C, 1:1 Langmuir fit", "units": {"koff": "s⁻¹", "kon": "M⁻¹ s⁻¹"}, "experimental": "as §1, §2", "values": [{"binder": "B1", "Kd": "2.8 nM", "koff": 0.00047, "kon": 170000}, {"binder": "B2", "Kd": "2.6 nM and 2.8 nM", "koff": 0.00041, "kon": 150000}, {"binder": "B3", "Kd": "2.2 nM", "koff": 0.00043, "kon": 200000}, {"binder": "B4", "Kd": "2.8 nM", "koff": 0.00046, "kon": 160000}, {"binder": "B5", "Kd": "2.4 nM", "koff": 0.00059, "kon": 240000}]}, {"target": "T1, GPC3", "assay": "SPR (Biacore T100), antibody captured on Protein A/G chip, antigen as analyte, 25 C, 1:1 Langmuir fit", "remark": "another data set of the same source", "units": {"Kd": "nM", "koff": "s⁻¹", "kon": "M⁻¹ s⁻¹"}, "experimental": "as §1, §2", "values": [{"binder": "B6", "Kd": 1.5, "koff": 0.0004, "kon": 270000}, {"binder": "B7", "Kd": 0.99, "koff": 0.00038, "kon": 390000}, {"binder": "B8", "Kd": 1.4, "koff": 0.00039, "kon": 280000}, {"binder": "B9", "Kd": 1.3, "koff": 0.00036, "kon": 270000}]}]}
